# Reference: article PMC2816707, “A Humanized Anti-VEGF Rabbit Monoclonal Antibody Inhibits Angiogenesis and Blocks Tumor Growth in Xenograft Models” (PLoS ONE, 2010)
# Where a chain is given by its changes, count along the chain named.
# B1: humanized EBV321 (antibody, V domains shown)
# VH: EVQLVESGGGLVKPGGSLRLSCAASGFSFSNNDVMCWVRQAPGKGLEWIGCIMTTDVVTEYANWAKSRFTVSRDSAKNSVYLQMNSLRAEDTAVYFCARDSVGSPLMSFDLWGPGTLVTVSS
# VL: DIQMTQSPSSLSASVGDRVTINCQASQSIYNNNELSWYQQKPGKPPKLLIYRASTLASGVPSRFSGSGSGTDFTLTISSLQPEDVATYYCGGYKSYSNDGNGFGGGTKVEIK
# notes: also called hEBV321; humanized anti-VEGF RabMAb; source: 293-6E cells, L and H chain plasmids co-transfected, purified (protein A)
# B2: anti-VEGF RabMAb EBV321 (antibody, V domains shown)
# VH: QSLEESGGDLVKPGASLTLSCTASGFSFSNNDVMCWVRQAPGKGLEWIGCIMTTDVVTEYANWAKSRFTVSKTSSSTVTLQLTSLTVADTATYFCARDSVGSPLMSFDLWGPGTLVTVSS
# VL: LVMTQTPASVSAAVGGTVTINCQASQSVYGNNELSWYQQKPGQPPKLLIYRASTLASGVPSRFSGSGSGTQFTLTISGVQCADAATYYCGGYKSYSNDGNGFGGGTEVVVK
# notes: also called parental EBV321; source: 293-6E cells, L and H chain plasmids co-transfected, purified (protein A)
# B3: heavy chain of EBV307 paired with light chain of EBV320 (antibody, V domains shown)
# VH: B2 VH with L3V, D9G, A15G, S16T, S20T, A23V, E59A, K72R, S76T, L82V
# VL: B2 VL with S27N, V28L, G30N, R51W, S64K, G90A
# notes: also called 307H/320L
# B4: anti-VEGF RabMAb EBV307 (antibody, V domains shown)
# VH: B2 VH with L3V, D9G, A15G, S16T, S20T, A23V, E59A, K72R, S76T, L82V
# VL: B2 VL with P44R, A82F, G90S, S96Y, N100S
# notes: also called 307H/307L; source: 293-6E cells, L and H chain plasmids co-transfected, purified (protein A)
# B5: anti-VEGF RabMAb EBV302 (antibody, V domains shown)
# VH: B2 VH with S20T, D32A, S76T, L82M
# VL: B2 VL with T19I, S27N, V28L, G30N, R51W, S64K, G90A, D98G
# notes: also called 302H/302L; source: 293-6E cells, L and H chain plasmids co-transfected, purified (protein A)
# B6: heavy chain of EBV320 paired with light chain of EBV321 (antibody, V domains shown)
# VH: B2 VH with S20T, D32A, S76T, L82M
# VL: B2 VL
# notes: also called 320H/321L
# B7: heavy chain of EBV302 paired with light chain of EBV321 (antibody, V domains shown)
# VH: B2 VH with S20T, D32A, S76T, L82M
# VL: B2 VL
# notes: also called 302H/321L
# B8: heavy chain of EBV321 paired with light chain of EBV320 (antibody, V domains shown)
# VH: B2 VH
# VL: B2 VL with S27N, V28L, G30N, R51W, S64K, G90A
# B9: heavy chain of EBV302 paired with light chain of EBV307 (antibody, V domains shown)
# VH: B2 VH with S20T, D32A, S76T, L82M
# VL: B2 VL with P44R, A82F, G90S, S96Y, N100S
# notes: also called 302H/307L
# B10: heavy chain of EBV321 paired with light chain of EBV302 (antibody, V domains shown)
# VH: B2 VH
# VL: B2 VL with T19I, S27N, V28L, G30N, R51W, S64K, G90A, D98G
# B11: heavy chain of EBV321 paired with light chain of EBV307 (antibody, V domains shown)
# VH: B2 VH
# VL: B2 VL with P44R, A82F, G90S, S96Y, N100S
# B12: heavy chain of EBV320 paired with light chain of EBV307 (antibody, V domains shown)
# VH: B2 VH with S20T, D32A, S76T, L82M
# VL: B2 VL with P44R, A82F, G90S, S96Y, N100S
# notes: also called 320H/307L
# B13: heavy chain of EBV307 paired with light chain of EBV302 (antibody, V domains shown)
# VH: B2 VH with L3V, D9G, A15G, S16T, S20T, A23V, E59A, K72R, S76T, L82V
# VL: B2 VL with T19I, S27N, V28L, G30N, R51W, S64K, G90A, D98G
# notes: also called 307H/302L
# B14: anti-VEGF RabMAb EBV320 (antibody, V domains shown)
# VH: B2 VH with S20T, D32A, S76T, L82M
# VL: B2 VL with S27N, V28L, G30N, R51W, S64K, G90A
# notes: also called 320H/320L; source: 293-6E cells, L and H chain plasmids co-transfected, purified (protein A)
# B15: heavy chain of EBV307 paired with light chain of EBV321 (antibody, V domains shown)
# VH: B2 VH with L3V, D9G, A15G, S16T, S20T, A23V, E59A, K72R, S76T, L82V
# VL: B2 VL
# notes: also called 307H/321L
# Columns and labels:
# [1] = biological target: T1, Recombinant human VEGF165 (human, UniProt P15692-4, strain); assay: ELISA; VEGF/VEGFR-2 interaction ELISA: 5 µg/ml Fc-VEGFR-2 (ECD) coated; antibody pre-incubated 1 hour with recombinant human VEGF (0.5 µg/ml final) before transfer to the plate; bound VEGF detected by a mouse anti-VEGF165 monoclonal antibody; triplicates; conditions: both partners purified
# T1 construct: also called human vascular endothelial growth factor-A; VEGF-A165; source: bought: Shanghai Primegene Bio-Tech Co. and R&D System
# [2] = biological target: T1, Recombinant human VEGF165; assay: SPR; BIAcore 3000; antibodies immobilised on CM5 chips by amine coupling (about 600 RU); VEGF165 (R&D Systems) injected at 0.2 to 50 nM, 35 µl/min, 25°C, HBS-P (10 mM HEPES pH 7.4, 150 mM NaCl, 0.005% P20); 1:1 binding model, global fit; conditions: both partners purified
# [3] = biological target: T2, rabbit IgG Fc-hVEGF (human VEGF165) fusion protein, wild type (human, UniProt P15692-4); assay: ELISA; VEGF capture ELISA: Fc-VEGF supernatants captured on coated goat anti-rabbit IgG (H+L); hEBV321 at various concentrations, 1 hr at 37°C; detected by anti-human IgG alkaline phosphatase; conditions: one partner purified
# T2 construct: also called Fc-VEGF; VEGF wild type; source: HEK-293E cells, transient transfection, cleared culture supernatant; not shown: Fc (rabbit IgG), N-terminal, kept
# T2 sequence (P15692 other isoform, or with tags, fused parts or gaps): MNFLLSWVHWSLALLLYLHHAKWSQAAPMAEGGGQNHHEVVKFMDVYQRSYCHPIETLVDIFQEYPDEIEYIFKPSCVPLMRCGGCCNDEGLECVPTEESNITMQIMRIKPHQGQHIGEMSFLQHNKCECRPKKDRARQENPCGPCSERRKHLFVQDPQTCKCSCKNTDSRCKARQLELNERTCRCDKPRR
# [4] = biological target: T1, Recombinant human VEGF165; assay: SPR; BIAcore 3000; antibodies immobilised on CM5 chips by amine coupling (about 600 RU); VEGF165 (R&D Systems) injected at 0.2 to 50 nM, 35 µl/min, 25°C, HBS-P (10 mM HEPES pH 7.4, 150 mM NaCl, 0.005% P20); 1:1 binding model, global fit; conditions: both partners purified; remark: listed apart in the source
# [5] = biological target: T1, Recombinant human VEGF165; assay: cell-based or functional assay
# Target sequence in this assay (P15692 whole entry, looked up, change not shown, the tested form may be a part): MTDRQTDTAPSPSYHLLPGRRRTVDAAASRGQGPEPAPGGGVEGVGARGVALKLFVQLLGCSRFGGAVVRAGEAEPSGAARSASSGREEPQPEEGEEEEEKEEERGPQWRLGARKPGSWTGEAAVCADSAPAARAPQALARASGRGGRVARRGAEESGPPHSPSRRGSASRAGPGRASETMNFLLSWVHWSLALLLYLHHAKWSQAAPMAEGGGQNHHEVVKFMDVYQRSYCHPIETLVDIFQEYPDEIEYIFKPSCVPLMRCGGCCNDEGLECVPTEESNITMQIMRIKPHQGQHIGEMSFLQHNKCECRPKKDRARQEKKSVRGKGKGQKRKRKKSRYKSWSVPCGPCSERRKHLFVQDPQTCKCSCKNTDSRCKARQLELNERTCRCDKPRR
# [6] = biological target: T1, Recombinant human VEGF165; assay: ELISA; direct competition ELISA: human VEGF-A165 coated (0.05 µg/ml); reference antibody (0.04 µg/ml) mixed with increasing concentration of competitor, 1 hr at room temperature; bound reference antibody detected by anti-rabbit IgG Fc secondary antibody, chemiluminescence; conditions: both partners purified
# Target sequence in this assay (P15692 whole entry, looked up, change not shown, the tested form may be a part): as above
# [7] = biological target: T1, Recombinant human VEGF165; assay: ELISA; VEGF/VEGFR-2 interaction ELISA: 5 µg/ml Fc-VEGFR-2 (ECD) coated; antibody pre-incubated 1 hour with recombinant human VEGF (0.5 µg/ml final) before transfer to the plate; bound VEGF detected by a mouse anti-VEGF165 monoclonal antibody; triplicates; conditions: both partners purified; remark: listed apart in the source
# [8] = biological target: T1, Recombinant human VEGF165; assay: ELISA; antigen binding ELISA with the antigen coated on a 96-well plate; paired H and L chains of the 15 antibodies; grades against background reading
# Target sequence in this assay (P15692 whole entry, looked up, change not shown, the tested form may be a part): as above
binder,measurement,setting,value
B1,IC50,[1],3.2 nM
same,Kd,[2],0.0119 nM
same,binding result,[3],binds
same,Kd,[4],0.0115 nM
same,koff,[4],1.88e-05 s⁻¹
same,kon,[4],1.63e+06 M⁻¹ s⁻¹
same,IC50 of inhibition of VEGF-stimulated HUVEC proliferation,[5],0.008 nM
same,inhibition of EBV321 binding to VEGF at 5 fold excess,[6],50%
B2,IC50,[1],4.1 nM
same,Kd,[4],0.419 nM
same,koff,[4],0.00119 s⁻¹
same,kon,[4],2.85e+06 M⁻¹ s⁻¹
same,IC50 of inhibition of VEGF-stimulated HUVEC proliferation,[5],0.039 nM
same,IC50,[7],0.56 nM
B3,binding result,[8],binds
B4,IC50,[7],2.62 nM
B5,IC50,[7],25.2 nM
B6,binding result,[8],binds
B7,binding result,[8],binds
B8,binding result,[8],binds
B9,binding result,[8],binds
B10,binding result,[8],binds
B11,binding result,[8],binds
B12,binding result,[8],binds
B13,binding result,[8],binds
B14,IC50,[7],3.32 nM
B15,binding result,[8],binds
